From publication PMC5686756, “IKKγ-Mimetic Peptides Block the Resistance to Apoptosis Associated with Kaposi's Sarcoma-Associated Herpesvirus Infection” (Journal of Virology, 2017)

Key:
[1] = tested on: IKKγ; test: Thermofluor assay, thermal denaturation of IKKγ alone; assay type: physicochemical; conditions: various concentrations, SYPRO orange
Source text: FIG 2 vFLIP-IKKγ interaction and peptide thermofluor analysis. (A) (Left) Cartoon depiction of the ks-vFLIP–IKKγ heterotetramic complex (PDB code 3CL3). The IKKγ and ks-vFLIP monomers are shown in gray and wheat, respectively. (Right) The ks-vFLIP-IKKγ dimer interface highlighting cleft 1 (white) and cleft 2 (cyan). Residues essential for the formation of the cleft 1 interactions (H235, F238, D242, and K246) are colored magenta, and those that interact with cleft 2 (Q236 and E240) are colored blue. (B) IKKγ ks-vFLIP minimal interacting motif (residues 230 to 248) together with those forming the 30- and 21-mer peptides (pink and violet, respectively) used in the thermofluor studies. (C) Thermal denaturation profiles for ks-vFLIP (left) and IKKγ (right) at various concentrations. […] (D) Thermal denaturation of ks-vFLIP in the presence of various concentrations of IKKγ (left) and the 21-mer (pink) and 30-mer (violet) (right) peptides.
Each experiment was repeated at least 3 times. All peptides were purchased from Eurogentec.

[2] = biological target: T1, GB1–ks-vFLIP (Human herpesvirus 8 type P, UniProt F5HEZ4); test: biochemical; assay type: binding, Kaposi's sarcoma-associated herpesvirus
T1 construct: ks-vFLIP (residues 1 to 188) was PCR cloned into the EcoRI and XhoI sites of GB1-pBR22b; 6His (C); made in house; host or cells: E. coli BL21(DE3)
Description: We next sought to assess the affinity of spIKKγ for vFLIP using isothermal calorimetry (ITC).
Isothermal calorimetry (ITC) experiments were performed using a Microcal VP-ITC micocalorimeter (MicroCal). For all binding reactions, syringe concentrations varied between ∼85 and 100 μM for IKKγ(150–272) and cell concentrations between ∼8 and 10 μM for GB1-vFLIP. Titrations consisted of an initial 2-μl injection, followed by 20 10-μl injections with stirring at 300 rpm. In competition assays, GB1–ks-vFLIP was first incubated with 20 μM spIKKγ and DMSO to 4% prior to loading into the cell and titration with IKKγ(150–272). All ITC binding experiments were performed in deionized water at 25°C owing to the buffer constraints of spIKKγ, GB1–ks-vFLIP, and IKKγ(150–272), where GB1–ks-vFLIP and IKKγ(150–272) were buffer matched by overnight dialysis, followed by the addition of 4% DMSO to each. […] Following collection, all data were analyzed using ORIGIN 70 software and fitted to a one-site binding model with each experiment performed at least in triplicate.

[3] = tested on: ks-vFLIP; conditions: IKKγ(150–272) at 30 μM; 30 μM ks-vFLIP unless otherwise stated, SYPRO orange; repeated at least 3 times
Description: To achieve this, an unmodified 30-mer peptide (residues 224 to 253) was designed to encompass the interacting motif and neighboring residues along with a 21-mer (residues 226 to 248), only marginally longer than the motif itself (residues 230 to 248 [Fig. 2B]). These were commercially synthesized and their ability to associate with ks-vFLIP was assessed using a thermofluor assay (Fig. 2C and D).
Thermofluor studies were conducted using the MyIQ reverse transcription-PCR (RT-PCR) system (Bio-Rad) in a 96-well plate format. Trials were performed in which 30 μM ks-vFLIP (unless otherwise stated) was combined with either IKKγ or mimetic peptides (at the specified concentrations) prior to the addition of SYPRO orange diluted in a 1:1,000 (vol/vol) ratio and thermal denaturation. The data were subsequently processed using the Bio-Rad iQ5 software. Each experiment was repeated at least 3 times.

T1 sequence (F5HEZ4 whole entry, the tested form may be a part): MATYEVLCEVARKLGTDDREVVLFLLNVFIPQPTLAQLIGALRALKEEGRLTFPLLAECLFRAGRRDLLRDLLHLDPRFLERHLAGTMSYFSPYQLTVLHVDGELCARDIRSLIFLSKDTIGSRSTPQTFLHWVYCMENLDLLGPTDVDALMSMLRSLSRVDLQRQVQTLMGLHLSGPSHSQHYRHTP

B1: IKKγ(150–272): IKKγ fragment encompassing residues 150 to 272 (protein)
chain: LGELQESQSRLEAATKECQALEGRARAASEQARQLESEREALQQQHSVQVDQLRMQGQSVEAALRMERQAASEEKRKLAQLQVAYHQLFQEYDNHIKSSVVGSERKRGMQLEDLKQQLQQAEE
thermal denaturation response of IKKγ [1]: lack of a significant response
apparent dissociation constant (Kd) of the vFLIP-IKKγ interaction in the presence of peptide ([2]; GB1–ks-vFLIP preincubated with 20 μM spIKKγ, 4% DMSO, deionized water, 25°C, at least triplicate): 30 µM
binding affinity for ks-vFLIP, spIKKγ compared with IKKγ(150–272) ([2]; ITC): nearly equivalent binding affinities
shift in melting temperature of ks-vFLIP [3]: ~8 °C
